{"source": "patent US8993741B2", "about": "“SMNdelta7 degron: novel compositions and methods of use” (The Trustees of the University of Pennsylvania, priority 2009, dated 2015)", "molecules": {"B1": {"name": "SMNΔ7: SMN protein from exon 7 skipping, lacks C-terminal 16 amino acids and acquires EMLA (protein, listed as Homo sapiens)", "chain": "MAMSSGGSGGGVPEQEDSVLFRRGTGQSDDSDIWDDTALIKAYDKAVASFKHALKNGDICETSGKPKTTPKRKPAKKNKSQKKNTAASLQQWKVGDKCSAIWSEDGCIYPATIASIDFKRETCVVVYTGYGNREEQNLSDLLSPICEVANNIEQNAQENENESQVSTDESENSRSPGNKSDNIKPKSAPWNSFLPPPPPMPGPRLGPGKPGLKFNGPPPPPPPPPPHLLSCWLPPFPSGPPIIPPPPPICPDSLDDADALGSMLISWYMSGYHTGYYMEMLA"}}, "key": {"293T cells [1]": {"system": "293T cells", "assay": "Protein stability assay: luciferase activity of Luc-fused constructs after CHX treatment", "format": "cell-based", "settings": "Luc fusion in 293T cells, CHX 0.1 mg/ml, up to 10 hours", "description": "To construct plasmids expressing Luc-fused proteins, the luciferase gene was cloned into pcDNA3.1 vector at HindIII/KpnI sites, then DNA fragments encoding full-length wild type human SMN, SMNΔ7, several deletion mutants of SMNΔ7, and optiPEST were inserted into the KpnI/XhoI sites. SMNΔ7 mutants with single amino acid change were generated by mutating residues in YG+EMLA to alanine by Quickchange site-directed mutagenesis kit (Stratagene).\nCells (293T cells) were transfected with plasmids expressing various constructs including Luc-SMN, Luc-SMNΔ7, GFP-YG+EMLA or GFP-NS. Forty-eight hours after transfection, the cells were treated with CHX (0.1 mg/ml) for various times as indicated and then assayed for luciferase activity. Luciferase activity at each time point was calculated by comparison to those at time 0, which was set to 100%. Luciferase activities were measured using One-Glo reagent (Promega).\nA reporter system that recapitulates the differential stability of full-length SMN and SMNΔ7 and allows quantitative assessment of SMNΔ7's instability determinants was developed. […] Forty-eight hours after transfection, cells were treated with the protein synthesis inhibitor cycloheximide (CHX), and luciferase activity was measured at time intervals of up to 10 hours. […]"}, "293T cells [2]": {"system": "293T cells", "assay": "Level of HA-tagged SMN proteins, Western blot with anti-HA antibody", "format": "cell-based", "settings": "without MG132 treatment", "protocol": "FIG. 3, comprising FIG. 3A through FIG. 3D, is a series of images depicting the importance of residue S270 for the activity of the SMNΔ7-DEG through YG+EMLA. FIG. 3A is a schematic illustration depicting seven residues in the YG box that were each mutated to alanine, as indicated. […] depicts the results of Western blot analyses using an anti-HA tag antibody directed against HA-tagged SMN, SMNΔ7, and SMNΔ7^S270A expressed in 293T cells treated with DMSO or 10 μM MG132 (MG) for 16 hours. Fusion proteins were monitored by, and Magoh was used as a control. FIG. 3C is a graph depicting the quantification of HA-tagged proteins depicted in FIG. 3B and compared to HA-SMN without MG132 treatment. Protein amount (%) for SMNΔ7, and SMNΔ7^S270A are calculated relative to HA-SMN not treated with MG132, that is arbitrarily set to 100%. The fold change of each fusion protein amount upon MG132 treatment is indicated in red above the column. […]\nTo identify specific residues in the SMN07-DEG that are important for its activity, mutagenesis of the YG box was performed wherein every second residue was converted to alanine in the context of full-length SMNΔ7 and determined the half-life of each in 293T cells. […] The levels of the tagged SMN proteins were then monitored by Western blots using anti-HA antibody (FIG. 3B)."}, "S5 cells": {"system": "S5 cells", "assay": "Rescue of S5 cell viability after tetracycline depletion of SMN", "format": "cell-based, chicken", "settings": "retroviral expression, one week after tetracycline (1 μg/ml)", "protocol": "FIG. 4, comprising FIG. 4A through FIG. 4D, is a series of images depicting the functionality of SMNΔ7^S270A in snRNP assembly and its ability to rescue SMN-deficient cells. FIG. 4 A is a series of panels depicting S5 cells cultured in the presence of tetracycline (1 μg/ml) to deplete endogenous SMN and infected with retroviruses expressing SMN, SMNΔ7, or SMNΔ7^S270A. FIG. 4B is a graph depicting cell growth as in FIG. 4A measured by monitoring the number of live cells at the indicated time points following tetracycline addition. FIG. 4C depicts the results of Western blot analyses of SMN protein in rescued cells (10 days after tetracycline addition). FIG. 4D is a graph depicting SMN complex activity (%) as measured by in vitro snRNP assembly on U4 snRNA in cytoplasmic extracts from rescued cells, using U4ΔSm RNA as a control.\nS5 cells were maintained and infected with retroviruses expressing SMN, SMNΔ7, and SMNΔ7^S270A as described (Wang et al., 2001, J. Biol. Chem. 276:9599).\nTo determine whether SMNΔ7^S270A is a functional SMN protein, a previously established cell system, the S5 cell line, was used to investigate if SMNΔ7^S270A could rescue the viability of SMN-depleted cells. […]"}}}
{"molecule": "B1", "values": [{"measurement": "half-life (t1/2)", "setting": "293T cells [1]", "result": "~3", "unit": "h"}, {"measurement": "amount of HA-tagged protein", "setting": "293T cells [2]", "result": "much lower than that of SMN"}, {"measurement": "rescue of viability of SMN-depleted S5 cells", "setting": "S5 cells", "result": "did not"}]}
